Results reported in patent US20120141480A1.

Experiments:
[1] = molecular target: dog factor D (in dog serum) (dog); assay: cell-based or functional assay; conditions: scale: times less effective than on human factor D
[2] = molecular target: human factor D (purified from human serum) (human) (UniProt P00746); assay: cell-based or functional assay
Chain of UniProt P00746 (P00746 26-253 N180D): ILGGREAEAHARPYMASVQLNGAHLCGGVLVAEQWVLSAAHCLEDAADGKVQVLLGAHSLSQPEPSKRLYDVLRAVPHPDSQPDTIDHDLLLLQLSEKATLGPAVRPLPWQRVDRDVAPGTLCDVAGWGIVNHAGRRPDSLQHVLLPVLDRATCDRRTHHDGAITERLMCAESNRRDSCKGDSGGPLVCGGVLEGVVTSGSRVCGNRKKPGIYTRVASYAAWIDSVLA

MAb 166-32 (antibody) showed a neutralization of dog factor D in hemolytic assays, against human factor D [1] greater than 10, an alternative pathway hemolytic activity of plasma from an extracorporeal circuit with human whole blood (molar ratio (MAb:factor D)) [2] of 1.5 and an inhibition of factor D dependent hemolysis of unsensitized rabbit RBCs (factor D depleted human serum reconstituted with purified factor D) [2] of 0.3 µg/mL. The molar ratio for inhibition of factor D dependent hemolysis (molar ratio (MAb 166-32 to factor D)) [2] was 0.5.
